Measured values taken from patent US20210380702A1 (Regeneron, published 2021).
Positions count from the first letter of the chain named. Names and notes keep the numbering of the source. Values joined by “and” are separate entries in the source; they are usually repeats but may differ in a detail not shown here. Identical values can stand only once.

B1: H2aM8314N (antibody, V domains shown)
VH: EVQLVESGGGVVRPGGSLRLSCAASGFTFDDYGMTWVRQAPGRGLEWVSGIHWHGKRTGYADSVKGRFTISRDNAKKSLYLQMNSLKGEDTALYHCVRGGMSTGDWFDPWGQGTLVIVSS
VL: DIQMTQSPSSLSASLGDRVTITCRASQSINSYLNWYQQKPGKAPKLLIYVASSLQSGVPSRFSGSGSGTEFTLTISNLQPEDFATYYCQQSYSTPPITFGQGTRLEIK
notes: human variable regions, mouse IgG2 Fc (H2aM prefix); also called H2M8314N
B2: H2aM8321N (antibody, V domains shown)
VH: EERLVESGGDLVQPGGSLRLSCAASGITVGTNYMNWVRQAPGKGLEWVSVISSGGNTHYADSVKGRFIMSRQTSKNTLYLQMNSLETEDTAVYYCARGIRGLDVWGQGTMVTVSS
VL: B1 VL with L15V, I29M, N30S, K42R, Y49F, V50A, E70D, N77S
notes: human variable regions, mouse IgG2 Fc (H2aM prefix); also called H2M8321N
B3: H2aM8317N (antibody, V domains shown)
VH: EVQLVESGGGLVQPGGSLRLSCAASGFTVGSNYMNWVRQAPGKGLEWVSVIYSGGSTYYADSVKGRFTISRLTSKNTLYLQMSSLRPEDTAVYYCARGIRGLDVWGQGTTVTVSS
VL: B1 VL with L15V, S28T, S31I, K42R, K45R, V50A, E70D, N77S, Q89H
notes: human variable regions, mouse IgG2 Fc (H2aM prefix); also called H2M8317N
B4: H2aM8310N (antibody, V domains shown)
VH: QVQLVQSGAEVKKPGASVQVSCKASGYSFTGYYIHWVRQAPGQGLEWMGWINPNSGTKKYAHKFQGRVTMTRDTSIDTAYMILSSLISDDTAVYYCARDEDWNFGSWFDSWGQGTLVTVSS
VL: DIVMTQTPLSSPVTLGQPASISCRSSQTLVHGDGNTYLSWIQQRPGQPPRLLIYKVSNQFSGVPDRFSGSGAGTDFTLKISRVEAEDVGLYFCMQATHFPITFGQGTRLEIK
notes: human variable regions, mouse IgG2 Fc (H2aM prefix); also called H2M8310N
B5: H1H9364P2 (antibody, V domains shown)
VH: EVQLVESGGGLVQPGRSLRLSCAASGFTFDDYALHWVRQAPGKGLEWVSGISWTGGTIDYADSVKGRFTISRDNAKNSLYLQMSSLRTEDTAIYYCTRDIRGNWKYGGWFDPWGQGTLVTVSS
VL: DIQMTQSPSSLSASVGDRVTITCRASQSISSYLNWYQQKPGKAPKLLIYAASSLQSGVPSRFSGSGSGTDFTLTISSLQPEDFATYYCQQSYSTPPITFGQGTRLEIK
notes: human IgG1 Fc (H1H prefix)
B6: H2aM8306N (antibody, V domains shown)
VH: EVQLVESGGGLVQPGGSLRLSCAASGFTFSRFWMSWVRQAPGKGLEWVANINQDGTEKYYVDSVKGRFTISRDNAKNSLYLQMNSLRAGDTAVYYCANTYYDFWSGHFDYWGQGTLVTVSS
VL: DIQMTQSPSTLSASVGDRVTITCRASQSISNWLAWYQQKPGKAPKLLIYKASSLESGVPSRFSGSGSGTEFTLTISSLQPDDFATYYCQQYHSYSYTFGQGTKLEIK
notes: human variable regions, mouse IgG2 Fc (H2aM prefix); also called H2M8306N
B7: H2aM8309N (antibody, V domains shown)
VH: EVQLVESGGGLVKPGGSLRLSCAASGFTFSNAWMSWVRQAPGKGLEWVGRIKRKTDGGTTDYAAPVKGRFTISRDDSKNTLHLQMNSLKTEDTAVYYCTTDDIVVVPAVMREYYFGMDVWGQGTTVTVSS
VL: DIQMTQSPSSLSASVGDRVTITCRTSQGIRNDLGWYQQKPGKAPKRLIYAASSLQSGVPSRFSGSGSGTEFTLTISSLQPEDFATYYCLQHNNYPYTFGQGTKLEIK
notes: human variable regions, mouse IgG2 Fc (H2aM prefix); also called H2M8309N
B8: H1H9329P (antibody, V domains shown)
VH: EVQLVESGGGLVQSGGSLRLSCAASGFTFSSYWMSWVRQAPGKGLEWVANIKQDGSEKYYVDSVKGRFTISRDNAKNSLYLQMNSLRADDTAVYYCARDDIVVVPAPMGYYYYYFGMDVWGQGTTVTVSS
VL: B7 VL with T25A, N93S
notes: human IgG1 Fc (H1H prefix)
B9: H2aM8323N (antibody, V domains shown)
VH: QVQLVQSGAEVKMPGSSVRVSCKASGGIFSSSTISWVRQAPGQGLEWMGEIIPVFGTVNYAQKFQDRVIFTADESTTTAYMELSSLKSGDTAVYFCARNWGLGSFYIWGQGTMVTVSS
VL: EIVLTQSPGTLSLSPGERATLSCRASQSFNFNYLAWYQQKPGQAPRLLIYGASSRATGIPDRFSGSGSGTDFTLTINRLEPEDFGVFYCQQYESAPWTFGQGTKVEIK
notes: human variable regions, mouse IgG2 Fc (H2aM prefix); also called H2M8323N
B10: H2aM8312N (antibody, V domains shown)
VH: QVHLVQSGAEVKKPGASVKVSCKASGYTFTGYYIHWVRQAPGHGLEWMGWLNPNTGTTKYIQNFQGRVTMTRDTSSSTAYMELTRLRSDDTAVYYCARDEDWNYGSWFDTWGQGTLVTVSS
VL: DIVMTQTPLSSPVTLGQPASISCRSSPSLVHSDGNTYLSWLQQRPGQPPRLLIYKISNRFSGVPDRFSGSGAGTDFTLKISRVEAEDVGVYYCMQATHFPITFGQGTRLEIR
notes: human variable regions, mouse IgG2 Fc (H2aM prefix); also called H2M8312N

What follows are binders tested against T1, full length human PD-L1 (amino acids 1 to 290 of NP_054862.1) on transfected cells (human, UniProt Q9NZQ7 19-290) (assay: FACS, 100 nM antibody).
T1 construct: also called HEK293/hPD-L1; Raji/hPD-L1
T1 sequence (Q9NZQ7 19-290 limits assumed): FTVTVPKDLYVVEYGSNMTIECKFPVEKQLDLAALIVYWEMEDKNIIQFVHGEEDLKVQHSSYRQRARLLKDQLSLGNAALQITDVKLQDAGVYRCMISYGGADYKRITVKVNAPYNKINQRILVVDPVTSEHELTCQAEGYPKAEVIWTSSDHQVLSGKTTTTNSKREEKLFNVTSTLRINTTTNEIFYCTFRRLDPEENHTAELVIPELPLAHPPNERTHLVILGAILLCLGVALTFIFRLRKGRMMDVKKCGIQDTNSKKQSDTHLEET
Procedure: (§1) The binding of anti-PD-L1 antibodies to a human embryonic kidney cell line (HEK293; ATCC, #CRL-1573) stably transfected with full length human PD-L1 (amino acids 1 to 290 of accession number NP_054862.1) (HEK293/hPD-L1) was determined by FACS.
(§2) For the assay, adherent cells were detached using enzyme-free dissociation buffer and blocked with complete medium. Cells were centrifuged and resuspended at a concentration of 2.8×10\hat{ }6 cells/mL in cold PBS containing 2% FBS. […] Cells were washed with D-PBS containing 2% FBS to remove unbound secondary detection reagents and fluorescence measurements were acquired using a HyperCyte (IntelliCyt, Inc.) flow cytometer. Data was analyzed using HyperCyte software.

Row | Ratio of HEK293/hPD-L1 to HEK293 parental cells | Binder
1 | 95 | B1
2 | 85 | B2
3 | 53 | B3
4 | 11 | B4
5 | 157 | B5
6 | 246 | B6
7 | 166 | B7
8 | 188 | B8
9 | 73 | B9
10 | 115 | B10

What follows are binders tested against T2, recombinant human PD-L1 (amino acids 19-239 of NP_054862.1) expressed with a C-terminal mouse IgG2a Fc tag (human) (assay: competition ELISA: 0.5 nM hPD-L1-mFc binding to coated hPD-1-hFc).
T2 construct: called dimeric; also called hPD-L1-mFc
T2 sequence (chain, as listed by the source limits assumed): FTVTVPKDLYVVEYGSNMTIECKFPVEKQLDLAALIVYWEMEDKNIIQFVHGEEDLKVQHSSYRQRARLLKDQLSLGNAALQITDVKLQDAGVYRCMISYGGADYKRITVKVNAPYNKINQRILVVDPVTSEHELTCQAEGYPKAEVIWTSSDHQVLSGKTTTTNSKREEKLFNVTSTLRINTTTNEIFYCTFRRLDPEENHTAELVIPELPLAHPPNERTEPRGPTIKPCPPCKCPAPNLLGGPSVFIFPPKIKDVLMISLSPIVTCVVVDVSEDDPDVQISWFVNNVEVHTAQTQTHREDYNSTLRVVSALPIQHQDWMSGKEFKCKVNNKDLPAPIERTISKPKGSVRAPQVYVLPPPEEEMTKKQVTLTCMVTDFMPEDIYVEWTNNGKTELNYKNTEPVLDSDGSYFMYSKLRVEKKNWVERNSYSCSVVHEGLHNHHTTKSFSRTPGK
Procedure: (§3) The ability of monoclonal anti-PD-L1 antibodies to block human PD-L1 from binding to its binding partners, the human PD-1 and the human B7-1 receptors, was measured using two competition sandwich ELISA formats.
(§4) A dimeric human PD-1 protein comprised of a portion of the extracellular domain (amino acids 25-170 of accession number NP_005009.2 with a C93S change) that was expressed with a C-terminal hFc tag (hPD-1-hFc; SEQ ID: 350) and a dimeric human B7-1 protein comprised of a portion of the extracellular domain expressed with C-terminal hFc tag and hexahistidine tags (hB7-1-hFc-6His; R&D Systems, #140-B1) were separately coated at 2 μg/mL on a 96-well microtiter plate in a PBS buffer overnight at 4° C. […] These antibody-protein complexes were then incubated for 1 hour at room temperature (RT). […] The complexes were allowed to bind to the coated plates for 1 hour at RT. […] Samples were developed with a TMB solution (BD Biosciences, #51-2606KC and #51-2607KC) to produce a colorimetric reaction and neutralized with 1M sulfuric acid before measuring absorbance at 450 nm on a Victor X5 plate reader. Data analysis used a sigmoidal dose-response model within Prism™ software.

Row | % maximum blocking | IC50 | Binder
11 | 93% | < 0.25 nM | B1
12 | 10% |  | B2
13 | -11% |  | B3
14 | 76% | 0.39 nM | B4
15 | 100% | < 0.25 nM | B5
16 | 99% | < 0.25 nM | B6
17 | 98% | < 0.25 nM | B7
18 | 100% | < 0.25 nM | B8
19 | 100% | < 0.25 nM | B9
20 | 23% |  | B10

The binders below were run against T1, full length human PD-L1 (amino acids 1 …) (assay: cell-based or functional assay).

Row | Concentration [M] of Antibody at 125% activation | Emax mean [%] @ 100 nM | Binder
21 | 1.44e-11 M | 235% | B1
22 |  | 117% | B2
23 |  | 109% | B3
24 |  | 113% | B4
25 | 3.78e-09 M | 167% | B6
26 | 3.09e-10 M | 181% | B7
27 |  | 124% | B8
28 | 2.2e-10 M | 173% | B9
29 |  | 75.6% | B10

Each binder was assayed against T2, recombinant human PD-L1 (amino acids …) (assay: BLI (Octet Red96): 100 nM hPD-L1-mFc + 500 nM mAb on captured hPD-1-hFc, 25C).
Procedure: Inhibition studies for anti-PD-L1 monoclonal antibodies expressed with mouse Fc were performed on an Octet Red96 instrument. […] Approximately 0.8 nm to 1.2 nm of recombinant human PD-1 expressed with a C-terminal human IgG1 Fc tag (hPD-1-hFc; SEQ ID: 350) was captured using anti-human IgG Fc capture biosensors. […] The entire experiment was performed at 25° C. in Octet HBST buffer (0.01 M HEPES pH7.4, 0.15M NaCl, 3 mM EDTA, 0.05% v/v Surfactant P20, 0.1 mg/mL BSA) with a plate shaking at a speed of 1000 rpm. The biosensors were washed in Octet HBST buffer in between each step of the experiment. The real-time binding response was monitored during the course of the experiment and the binding response at the end of every step was recorded.

Row | % Blocking | Binder
30 | 94% | B1
31 | -94% | B2
32 | -87% | B3
33 | 58% | B4
34 | 94% | B6
35 | 94% | B7
36 | 94% | B9
37 | -68% | B10

These binders were tested against T3, recombinant human PD-L1 (amino acids 19-239 of NP_054862.1) expressed with a C-terminal human IgG1 Fc tag (human) (assay: SPR (Biacore 3000): 100 nM hPD-L1-hFc + 500 nM mAb on captured hPD-1-mFc, 25C).
T3 construct: also called hPD-L1-hFc
T3 sequence (chain, as listed by the source limits assumed): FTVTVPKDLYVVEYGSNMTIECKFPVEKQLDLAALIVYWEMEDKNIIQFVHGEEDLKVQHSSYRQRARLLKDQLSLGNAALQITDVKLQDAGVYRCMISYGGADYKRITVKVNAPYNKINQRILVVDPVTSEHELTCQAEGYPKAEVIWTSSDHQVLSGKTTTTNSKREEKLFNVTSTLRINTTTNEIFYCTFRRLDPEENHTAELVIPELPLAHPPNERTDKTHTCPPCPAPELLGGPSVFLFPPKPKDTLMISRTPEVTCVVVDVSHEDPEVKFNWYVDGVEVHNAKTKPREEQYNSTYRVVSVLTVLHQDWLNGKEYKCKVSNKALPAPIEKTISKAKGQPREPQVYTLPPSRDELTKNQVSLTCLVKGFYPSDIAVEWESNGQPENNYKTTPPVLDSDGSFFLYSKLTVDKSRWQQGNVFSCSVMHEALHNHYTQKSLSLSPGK
Procedure: Next, inhibition studies for anti-PD-L1 monoclonal antibodies expressed with human Fc were performed on Biacore 3000 instrument. […] The entire experiment was performed at 25° C. in HBST running buffer (0.01 M HEPES pH7.4, 0.15M NaCl, 3 mM EDTA, 0.05% v/v Surfactant P20). The real-time binding responses were monitored during the entire course of the experiment and the binding response at the end of every step was recorded.

Row | % Blocking | Binder
38 | 86% | B5
39 | 97% | B8

These binders were tested against T2, recombinant human PD-L1 (amino acids …) (assay: competition ELISA: 8 nM hPD-L1-mFc binding to coated hB7-1-hFc-6His).
Procedure: as §3, §4

Row | % maximum blocking | IC50 | Binder
40 | 97% | < 4 nM | B1
41 | -124% |  | B2
42 | -166% |  | B3
43 | 98% | < 4 nM | B4
44 | 101% | 4.1 nM | B5
45 | 93% | < 4 nM | B6
46 | 98% | < 4 nM | B7
47 | 100% | 4.9 nM | B8
48 | 99% | < 4 nM | B9
49 | 98% | < 4 nM | B10

Each binder was assayed against T1, full length human PD-L1 (amino acids 1 …) (assay: FACS, 100 nM antibody, HEK293/hPD-L1 cells).
Procedure: as §1, §2

Row | MFI | Binder
50 | 195000 MFI | B1
51 | 112000 MFI | B2
52 | 67600 MFI | B3
53 | 14900 MFI | B4
54 | 324000 MFI | B5
55 | 316000 MFI | B6
56 | 193000 MFI | B7
57 | 282000 MFI | B8
58 | 163000 MFI | B9
59 | 158000 MFI | B10

What follows are binders tested against T4, recombinant cynomolgus monkey PD-L1 expressed with a C-terminal mouse IgG2a Fc tag (cynomolgus monkey) (assay: SPR (Biacore), mAb captured, 37C).
T4 construct: also called MfPD-L1-mFc; monkey PD-L1-mFc
T4 sequence (chain, as listed by the source limits assumed): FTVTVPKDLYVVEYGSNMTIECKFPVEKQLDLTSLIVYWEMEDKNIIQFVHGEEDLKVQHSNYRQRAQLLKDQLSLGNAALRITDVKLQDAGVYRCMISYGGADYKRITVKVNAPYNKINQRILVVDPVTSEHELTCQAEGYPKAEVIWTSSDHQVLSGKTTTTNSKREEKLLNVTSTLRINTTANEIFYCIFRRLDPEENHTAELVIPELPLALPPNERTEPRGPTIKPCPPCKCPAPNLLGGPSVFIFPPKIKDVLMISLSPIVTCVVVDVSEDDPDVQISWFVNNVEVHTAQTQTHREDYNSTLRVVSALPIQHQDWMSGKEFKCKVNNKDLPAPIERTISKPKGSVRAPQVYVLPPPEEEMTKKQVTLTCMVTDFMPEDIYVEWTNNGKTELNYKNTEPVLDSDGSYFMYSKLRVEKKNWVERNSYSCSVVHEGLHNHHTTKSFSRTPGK

Row | Kd | koff | kon | t1/2 | Binder
60 | 0.0471 nM and 0.028 nM | 0.000111 s⁻¹ and 6.76e-05 s⁻¹ | 2.36e+06 M⁻¹ s⁻¹ and 2.41e+06 M⁻¹ s⁻¹ | 104 min and 171 min | B5
61 | 0.708 nM | 0.00154 s⁻¹ | 2.18e+06 M⁻¹ s⁻¹ | 8 min | B8
